The target of this assay is T1, ATF domain of uPA (Homo sapiens, UniProt P00749).
T1 construct: expressed in transfected cells
Kind of assay: Yeast two hybrid with ATF domain of uPA. Type of assay: binding. The source says:
[…]
In order to explore how GhJAZ1 enters cancer cells, we cloned the genes of most tumor surface receptors, including uPAR (NCBI database accession number of NM_002659.4), CCK1R (NP_000721.1), CCK2R (NP_001350481.1), HER2 (NP_004439.2), GRPR (NP_005305.1), MUC1 (NP_001358649.1), VEGFR1 (NP_002010.2), Insulin receptor (NM_000208.4), NTR (XM_011528827.2), PSMA (XM_017017432.1), TFR1 (NM_001128148.3), TFR2 (NM_003227.4), PEPT1 (NM_005073.4), APN (NM_001150.3). […] We detected the interaction of GhJAZ1 with uPA (as the ligand of uPAR, NCBI database accession number of NP_002649.2) and uPAR by yeast two hybrid (the steps of the experiment as Example 3). […]

B1: GhJAZ1: cotton JAZ1 protein, gene number Gh_A05G0260, sequence SEQ ID No. 4; prokaryotically expressed with His tag, about 30 KD (protein)
chain: MSSCSESTAMKPARSPEKPSFAQTCNLLSQYLKEKGSFGDLSLGMTCNVEANGTPVVPPPTMNLFPLNDKSDDVCGRNGGNPKNLTSMDLFPQQAGLASKDDSPNKLEPQTAPMTIFYGGQVIVFNDFPANKAKEIMLLASNSSSQSNNSFNPIPFTSSIARSPIESSIGVPPTSKPVHPAQRAVPGDLPIARRASLHRFLEKRKDRITAKAPYQINNSAAAPSLSGDNKSWLGLAAQSP
modifications: His tag
notes: prokaryotically expressed with His tag, about 30 KD
As for B1, the “interaction with the ATF domain of uPA” value was “interacts”.

(Values after patent US20240279288A1, “APPLICATION OF PLANT JAZ PROTEINS AND DERIVED POLYPEPTIDES IN PREVENTION AND TREATMENT OF HUMAN AND ANIMAL TUMORS” (ANYANG INSTITUTE OF SINO-COTTON INDUSTRY INNOVATION, priority 2021, published 2024).)
